Measurements: article PMC8278288 (Frontiers in Immunology, 2021)

Columns and labels:
[1] = biological target: T1, IL-7 receptor ectodomain (rhIL-7Rα) (human, UniProt P16871 21-239); experiment: SPR
T1 chain: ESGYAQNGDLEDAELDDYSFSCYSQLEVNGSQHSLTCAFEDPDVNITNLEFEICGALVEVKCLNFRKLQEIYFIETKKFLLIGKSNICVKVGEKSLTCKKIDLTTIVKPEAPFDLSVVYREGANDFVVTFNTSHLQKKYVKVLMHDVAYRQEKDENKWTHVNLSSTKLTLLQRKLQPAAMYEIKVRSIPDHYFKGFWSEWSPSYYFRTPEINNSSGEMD

[2] = biological target: T2, N-terminal fragment of MMP-9-cleaved His-tagged human IL-7 produced in insect cells (IL-7*) (human, UniProt P13232 26-128, N-linked glycosylation (partially glycosylated; sites shown in Figure 1D)); experiment: pull-down; His-tagged IL-7 (C-terminal tag) digested with MMP-9, histidine tag pull-down with Ni-NTA magnetic microbeads under native conditions; bound and non-bound proteins resolved by reducing SDS-PAGE; details: both partners purified
T2 construct: Interleukin-7, human, N-terminal fragment up to Ala128 (MMP-9 cleavage between Ala128 and Leu129); also called N-terminal fragment of IL-7; source: bought: Novus (produced in insect cells), then digested with MMP-9
T2 sequence (looked up): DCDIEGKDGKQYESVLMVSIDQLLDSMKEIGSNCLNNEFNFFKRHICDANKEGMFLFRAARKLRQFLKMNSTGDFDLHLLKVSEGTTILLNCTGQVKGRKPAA

[3] = biological target: T3, N-terminal fragment of MMP-9-cleaved human IL-7 produced in HEK-293 cells (IL-7*) (human, UniProt P13232 26-128, N-linked oligosaccharides (sites shown in Figure 1D)); experiment: non-reducing SDS-PAGE; IL-7 digested with MMP-9, electrophoresis with SDS and without reducing agent, compared with reducing conditions; details: both partners purified
T3 construct: Interleukin-7, human, N-terminal fragment up to Ala128 (MMP-9 cleavage between Ala128 and Leu129); source: bought: Biolegend (produced in human HEK-293 cells), then digested with MMP-9
T3 sequence (looked up): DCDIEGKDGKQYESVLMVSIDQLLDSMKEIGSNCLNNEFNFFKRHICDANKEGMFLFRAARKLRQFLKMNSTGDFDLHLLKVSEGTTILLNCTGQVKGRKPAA

[4] = biological target: T4, N-terminal fragment of MMP-9-cleaved human IL-7 produced in E. coli (IL-7*) (human, UniProt P13232 26-128); experiment: as above; details: both partners purified
T4 construct: Interleukin-7, human, N-terminal fragment up to Ala128 (MMP-9 cleavage between Ala128 and Leu129); source: bought: Peprotech (produced in E. coli), then digested with MMP-9
T4 sequence (looked up): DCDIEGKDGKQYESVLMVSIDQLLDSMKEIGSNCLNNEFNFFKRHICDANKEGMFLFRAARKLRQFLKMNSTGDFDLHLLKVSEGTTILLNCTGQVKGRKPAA

B1: MMP-9-cleaved recombinant human IL-7 produced in E. coli (cIL-7) (complex)
chain 1: DCDIEGKDGKQYESVLMVSIDQLLDSMKEIGSNCLNNEFNFFKRHICDANKEGMFLFRAARKLRQFLKMNSTGDFDLHLLKVSEGTTILLNCTGQVKGRKPAA
chain 2: LGEAQPTKSLEENKSLKEQKKLNDLCFLKRLLQEIKTCWNKILMGTKEH
- Kd [1]: 64 nM

B2: C-terminal fragment of MMP-9-cleaved His-tagged human IL-7 produced in insect cells (IL-7**) (domain or fragment, UniProt P13232 129-177, looked up)
chain: LGEAQPTKSLEENKSLKEQKKLNDLCFLKRLLQEIKTCWNKILMGTKEH
notes: Interleukin-7, human, C-terminal fragment from Leu129 (neo-N-terminus LGEAQ); Held on nickel beads by the C-terminal His tag; source: bought: Novus (produced in insect cells), then digested with MMP-9; not shown: His tag, C-terminal, kept
- binding result [2]: binds

B3: MMP-9-cleaved recombinant human IL-7 produced in human HEK-293 cells (cIL-7) (complex)
chain 1: DCDIEGKDGKQYESVLMVSIDQLLDSMKEIGSNCLNNEFNFFKRHICDANKEGMFLFRAARKLRQFLKMNSTGDFDLHLLKVSEGTTILLNCTGQVKGRKPAA
chain 2: LGEAQPTKSLEENKSLKEQKKLNDLCFLKRLLQEIKTCWNKILMGTKEH
modifications: N-linked oligosaccharides (sites shown in Figure 1D)
- Kd [1]: 290 nM

B4: C-terminal fragment of MMP-9-cleaved human IL-7 produced in HEK-293 cells (IL-7**) (domain or fragment, UniProt P13232 129-177, looked up)
chain: LGEAQPTKSLEENKSLKEQKKLNDLCFLKRLLQEIKTCWNKILMGTKEH
notes: Interleukin-7, human, C-terminal fragment from Leu129 (neo-N-terminus LGEAQ); source: bought: Biolegend (produced in human HEK-293 cells), then digested with MMP-9
- binding result [3]: binds

B5: C-terminal fragment of MMP-9-cleaved human IL-7 produced in E. coli (IL-7**) (domain or fragment, UniProt P13232 129-177, looked up)
chain: LGEAQPTKSLEENKSLKEQKKLNDLCFLKRLLQEIKTCWNKILMGTKEH
notes: Interleukin-7, human, C-terminal fragment from Leu129 (neo-N-terminus LGEAQ); source: bought: Peprotech (produced in E. coli), then digested with MMP-9
- binding result [4]: binds
